The text below walks through data of publication PMC7954794, “Protein context shapes the specificity of SH3 domain-mediated interactions in vivo” (Nature Communications, 2021).

Common to all, as to format: cell-based, Saccharomyces cerevisiae
One experiment has as its system BUD14. Description: DHFR-PCA on solid medium, bait BUD14 (Fig. 1B). Conditions: bait BUD14, label = prey; for medrep (log2 median colony size normalized to plate background, PCA score): 4 replicates. An excerpt:
(§1) Supplement 41467_2021_21873_MOESM8_ESM.xlsx, sheet "Fig1B" | column: medsize; medrep; Ratio; Score

Another experiment has as its system ABP1. Description: DHFR-PCA on solid medium, bait ABP1 (Fig. 1B). The settings on record: bait ABP1, label = prey; for medrep (log2 median colony size normalized to plate background, PCA score): 2-4 replicates; for Ratio (SH3-deleted/WT medrep): only significant differences showed, PPIs completely lost have a ratio of 0.1 and the gained PPIs 2.5.
Text: as §1

Another experiment deals with BBC1. Put plainly: DHFR-PCA on solid medium, bait BBC1 (Fig. 1B). The settings on record: bait BBC1, label = prey; for medrep (log2 median colony size normalized to plate background, PCA score): 2-4 replicates.
Text: as §1

The next experiment concerns BEM1-1. Description: DHFR-PCA on solid medium, bait BEM1-1 (Fig. 1B). Conditions: bait BEM1-1, label = prey; for medrep (log2 median colony size normalized to plate background, PCA score): 2-8 replicates.
Text: as §1

In a further experiment the test system is BOI2. Put plainly: DHFR-PCA on solid medium, bait BOI2 (Fig. 1B). Conditions: bait BOI2, label = prey; 3-8 replicates.
Text: as §1

The subject of a further experiment is BEM1-2. Put plainly: DHFR-PCA on solid medium, bait BEM1-2 (Fig. 1B). Conditions: bait BEM1-2, label = prey; for medrep (log2 median colony size normalized to plate background, PCA score): 2-8 replicates.
Text: as §1

The next experiment concerns BOI1. Put plainly: DHFR-PCA on solid medium, bait BOI1 (Fig. 1B). The settings on record: bait BOI1, label = prey; 3-8 replicates.
Text: as §1

Experiment [1] has as its system 575 putative partners (preys) of 22 WT SH3-containing proteins. Put plainly: DHFR-PCA on solid medium, WT and SH3-deleted baits (Fig. 1B). More on the design: key to Score: 0: SH3-independent; 1: SH3-dependent PPIs; 2: SH3-inhibited PPIs. Conditions: for medrep (log2 median colony size normalized to plate background, PCA score): label = prey. In outline:
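Interactions scored by DHFR protein-fragment complementation on solid medium using robotic pinning; preys (DHFR F[3] fusions) arrayed in duplicate with control borders. Baits carried C-terminal DHFR F[1,2]-FLAG tags, tested as wild type and as SH3-deleted versions carrying a flexible Gly/Ser stuffer.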

The mark [2] stands for this setting: only significant differences showed, PPIs completely lost have a ratio of 0.1 and the gained PPIs 2.5.
The mark [3] stands for this setting: bait SLA1-3, DHFR-PCA, Replicates 4 (2 for YCR009C, YDR388W, YIL033C).

B1: YER149C (protein, UniProt P40091 1-420, looked up)
Protein PEA2: MHKFDLELSRRANPLLFSAERYEEYPLKYDELKQYLLSQNPSHPHHNSRPYTSIDYFDYLLYRSKNDESEIDLDKKLVSEFALYYVQKEHLNSDDLNPTLNELLKLQPKSADWYEMMLRILESINTTGIDQLTKENNNSFPNSKRARSSTNMGGTDKFNKGAYHTDKADDDKNEILQELTSFLMSNSIQKGIDIKPIPLDDPVKFLKNGINSILDTCVSLEKNTSSPPISPNAAAIQEEDSSKKLEELETAFSDLQLAHNFLTKQFENDRAEYVQDIEKLTRTNRELQDKLLNNHSNLSKTEKKLHELEQENKELEKANNKLNSSRHNFGMSSPASSPVTWDPSSPSSVGSPTSGSGSRSLSIMTSEFKKVLTSTQRKYEKELSDEREHRFKLERELALLKNAEANTSLALNRDDPPDML
B1: the “medrep (log2 median colony size normalized to plate background, PCA score)” value in the experiment with BUD14 amounted to 1.879. For the same molecule, the “Ratio (SH3-deleted/WT medrep)” value with BUD14 (setting [2]) worked out at 0.1.

B2: YLR332W (protein, UniProt P36027 26-376, looked up)
Cell wall integrity sensor …: QFFVQSSSSNSSAVSTARSSVSRVSSSSSILSSSMVSSSSADSSSLTSSTSSRSLVSHTSSSTSIASISFTSFSFSSDSSTSSSSSASSDSSSSSSFSISSTSATSESSTSSTQTSTSSSSSLSSTPSSSSSPSTITSAPSTSSTPSTTAYNQGSTITSIINGKTILSNHYTTVTYTPSATADSSNKSKSSGLSKKNRNIVIGCVVGIGVPLILVILALIYMFCIQSSRTDFIDSDGKVVTAYRANKFTKWWYMLLGKKVSDEYHSDSPLGGSASSAGGLDLDEADDVMEQSSLFDVRIRDSDSVLPNANTADHNNTNSGGEPINSSVASNDIIEEKFYDEQGNELSPRNY
As to B2, the “medrep (log2 median colony size normalized to plate background, PCA score)” value in the experiment with ABP1 was determined as 3.345; in the experiment on BBC1 it was 4.7031; with BEM1-1, 4.445; with BUD14 it was 1.439; in the experiment on BOI2, 4.169; in the experiment on BEM1-2, 4.445. The “medrep (log2 median colony size normalized to plate background, PCA score)” value with BOI1 was determined as 3.534. Besides, the “Ratio (SH3-deleted/WT medrep)” value in the experiment with ABP1 is 1.326.

B3: YHR158C (protein, UniProt P38853 1-1164, looked up)
Kelch repeat-containing …: MAGFSFAKKFTHKKHGKTPSDASISDQSREASLSTPPNEKFFTKQETPQKGRQFSQGYHSNVNKTSSPPMFARKQVSESRIQPSAVPPQQRNVSGPSTTLHKQLSKQREYTVWNRIKLQNSPFPRYRHVASAYVTDKNQIYVIGGLHDQSVYGDTWILTAFDNATRFSTTTIDISEATPPPRVGHAAVLCGNAFVVFGGDTHKVNKEGLMDDDIYLLNINSYKWTVPAPVGPRPLGRYGHKISIIATTQMKTKLYVFGGQFDDTYFNDLAVYDLSSFRRPDSHWEFLKPRTFTPPPITNFTMISYDSKLWVFGGDTLQGLVNDVFMYDPAINDWFIIDTTGEKPPPVQEHATVVYNDLMCVVGGKDEHDAYLNSVYFLNLKSRKWFKLPVFTAGIPQGRSGHSLTLLKNDKILIMGGDKFDYARVEEYDLHTSDIDMQRGTIVYTLDLARIKDLCPGVMDVPTDTPTPRNGNLDLATPVTPTSHQTKNMNVPISAAPLASAPSPAPKDFSDADRLNREVHNRNVSTEHQNQSHPVNSESHLIAEPNILTPYVPSESSQTPVMKITSNKPFDTPTIQKEPDLSETMDPTVGNQRIPSSIYGDNLTPANQIKNNSPILETLPSNEIKTPQNGNIEEIKHLPDADEKIDSTTTFDQEINGDKLGTSSMSKVEEDGNVADEDDEIGVAQMASSPSKDQFKIKHYNESSELSQNNTEIDKLSEPVDITIKKSDTAGHDSANHVIDASDEKNVSPMGDVPTDTKNEEASVPINRDATTEVVDRALFEKLRSELQSLKELTHEKALEAGAHIKELETELWQLKSQKNSGTTKEIDELDSVRLQSKCEILEADNHSLEDKVNELEELVNSKFLDIENLNEVIQFQNEKIKSLELEPNYKEKLEELQIEHENLSRENERLKNESKQHNEDIINNVANYSSQLGSLISHWKENRANSSFLESSSSLISVSDENGEKTVGEPYGDQSRHHRVVINKLTNRLDDLLERSQELTISKEKLSSEYHALKMEHSSLSQDVLVKENEIKKIQNDYKESISSMDSASKALMVSQRELEKYKSLNKKLIDELDELKFKNGVCSENFENGLRSTEESSNNVKNSNSIRENQFNIKINDLKAELFITNQERDDLKSEVLELKKRLLNLENNTKQVNEDADSDLL
For B3, the “medrep (log2 median colony size normalized to plate background, PCA score)” value in the experiment with BUD14 came out at 3.841.

B4: YKL117W (protein, UniProt P28707 2-216, looked up)
Co-chaperone protein SBA1: SDKVINPQVAWAQRSSTTDPERNYVLITVSIADCDAPELTIKPSYIELKAQSKPHVGDENVHHYQLHIDLYKEIIPEKTMHKVANGQHYFLKLYKKDLESEYWPRLTKEKVKYPYIKTDFDKWVDEDEQDEVEAEGNDAAQGMDFSQMMGGAGGAGGAGGMDFSQMMGGAGGAGSPDMAQLQQLLAQSGGNLDMGDFKENDEEDEEEEIEPEVKA
As for B4, the “medrep (log2 median colony size normalized to plate background, PCA score)” value is recorded as 3.786 in the experiment on ABP1, 1.6151 with BBC1, 3.847 in the experiment with BUD14 and 4.6716 in experiment [1] (setting [3]). Also, the “Ratio (SH3-deleted/WT medrep)” value is 1.319 in the experiment on ABP1 and 0.1 in the experiment with BBC1 (setting [2]). The Score in experiment [1] (bait SLA1-3, label = prey) was 0.

B5: YCR030C (protein, UniProt P25623 1-870, looked up)
Suppressor of yeast profilin …: MTEQRTKYADSILTTKSPYEATETIRIRLSQVKLLNKDFYLLFKELANLKRNYAQQLRKIIAENEDITKILNAQMIESNVLTPQEMSAFRFNSLGELRNVWDTVIEELKSDLKSSTEYYNTLDQQVVRELKESVENNTSWRESKDLHSKLSKNAASIEHYSKNNENSSHLEEARRQWDQQSPYLFELFETIDYNRLDTLKNCMLRFQTSFSDYLLNTTKECETVMTKFLAFEPQSEIDRFAKDASQYNFQLSSSSKEVVPNNASPASATGARPVSVSNGAANTEREKKSPQKDKRKSAFGNIGHRLASASSSLTHNDLMNNEFSDSTNNSSLKSKKSSHTLRSKVGSIFGRNKTKNKRQQQSSSNSHIQASITETPNNSSTRVSSTATSSIYQKQRRPTYSSSKSNNWTPGEASDTPPLPPHATPKNVDAPVTADTPPAQTFTPSEVPPSTPQQSSPPTAKEPDSSNLPKTVPISISQPPLQPQSKTKPLPVEPASPSISLPTATVDNQPSGQVDSRPLHIRAPALPPSRKQNFIHNRDSQLYDSLPNHGSGATPTSSSLSSIPQERPVSTLSSQITGELRELNPQATGSSTSLVGQSLFQHSSLDTSQFGLNASIAEVLNASFKDGMLQNSQLIGEIALNYLPNSVMNSPLPIGINLRINNGAKFEKVILNQAFIERVAPEEFKVNPSFIDSRTLGAIKYSIKEPIAPIVIHPVWRFESHQASVVLTVKMSPSLPDEISQIVIEDLVVFVNIDGANATSALSKPQGSFSKEKKRITWRFKEPVVLTRNGEGQRLIARFITDGLAHESAKGVITKFTISETDNVALPHSGAGSGITLTCQELDENNPFGGEWLDVNTKRTLTTGNYHGLA
With B5, the “medrep (log2 median colony size normalized to plate background, PCA score)” value is on record as 2.201 in the experiment with ABP1; 2.035 in the experiment with BEM1-1; 2.234 in the experiment on BUD14; 3.1776 in experiment [1] (bait SLA1-2, DHFR-PCA, Replicates 4 (2 for YCR009C, YDR388W)); 3.1776 in experiment [1] (setting [3]); 2.035 in the experiment on BEM1-2. In addition, the “Ratio (SH3-deleted/WT medrep)” value turned out to be 0.1 with BEM1-1 (setting [2]); 0.1 in experiment [1] (bait SLA1-2, label = prey, only significant differences shown, PPIs completely lost have a ratio of 0.1, gained PPIs 2.5); 0.1 with BEM1-2 (setting [2]). Also, the Score came out at 1 in experiment [1] (bait SLA1-2, label = prey) and 0 in experiment [1] (bait SLA1-3, label = prey).
